Results published in patent US11510992 (dated 2022).

Target: Conjugate 45b (human, UniProt P0DOX5 203-448 = IgG part)
Assay: ELISA

Row | Binder | binding result
1 | human Fcγ RIIb (receptor, UniProt P31994 43-217, looked up) TPAAPPKAVLKLEPQWINVLQEDSVTLTCRGTHSPESDSIQWFHNGNLIPTHTQPSYRFKANNNDSGEYTCQTGQTSLSDPVHLTVLSEWLVLQTPHLEFQEGETIVLRCHSWKDKPLVKVTFFQNGKSKKFSRSDPNFSIPQANHSHSGDYHCTGNIGYTLYSSKPVTITVQAP | binds
2 | murine Fcγ RIIb (receptor, mouse, UniProt P08101 30-210, looked up, also called mouse FcγR2B/CD32b) THDLPKAVVKLEPPWIQVLKEDTVTLTCEGTHNPGNSSTQWFHNGRSIRSQVQASYTFKATVNDSGEYRCQMEQTRLSDPVDLGVISDWLLLQTPQLVFLEGETITLRCHSWRNKLLNRISFFHNEKSVRYHHYSSNFSIPKANHSHSGDYYCKGSLGRTLHQSKPVTITVQGPKSSRSLP | binds
